Non-standard residues stand in square brackets, D forms with d. No end group written: not given here.

The target in the test is T1, lecithin:cholesterol acyltransferase (LCAT), purified from human plasma (human, UniProt P04180 25-440).
T1 sequence (looked up): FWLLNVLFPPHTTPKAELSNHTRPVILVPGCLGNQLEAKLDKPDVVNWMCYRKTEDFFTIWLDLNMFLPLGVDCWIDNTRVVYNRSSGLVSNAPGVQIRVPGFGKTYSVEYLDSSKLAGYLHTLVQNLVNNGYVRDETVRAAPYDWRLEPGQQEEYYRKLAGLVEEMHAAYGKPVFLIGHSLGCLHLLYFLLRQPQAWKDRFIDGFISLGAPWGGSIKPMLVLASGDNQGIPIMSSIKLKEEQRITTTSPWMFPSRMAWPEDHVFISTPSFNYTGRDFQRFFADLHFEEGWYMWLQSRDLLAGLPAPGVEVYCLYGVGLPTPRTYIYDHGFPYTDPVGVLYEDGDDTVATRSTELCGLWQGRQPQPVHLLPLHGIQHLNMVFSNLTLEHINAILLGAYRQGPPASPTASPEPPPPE
Kind of test: cell-based or functional assay.

B1: peptide 48 (peptide)
peptide: [dP][dV]LDLFRELLNELLEALKQKLK
Regarding B1, the “ACTIVITY (%) LCAT” value amounted to 22%.

These data come from patent US6900177.
